Experimental findings from US20250043290A1, “RNA SEQUENCES THAT INDUCE FLUORESCENCE OF SMALL MOLECULE FLUOROPHORES, MOLECULAR COMPLEXES, SENSORS, AND METHODS OF USE THEREOF” (CORNELL UNIVERSITY, priority 2021, published 2025) are described below.

Data set [1] in a line: On and off rates of aptamer binding to DFHO. The conditions noted are these: 50 nM RNA. The protocol: (§1) FIGS. 7A-7H provide photophysical and biophysical characterization of Squash. […] Excess RNA was used to ensure binding of nearly all fluorophore. […] Data represent mean values±s.d. for n=3 independent experiments. […] The fluorescence signal trace was fitted with a monoexponential curve to extract kobs. kobs was plotted as a function of total RNA (50 nM RNA) and fluorophore concentration. kon and koff were extracted as the slope and intercept, respectively. Squash koff (0.014±0.008 s^−1) is very similar to that of Corn (0.018±0.002 s^−1). kon for Squash-DFHO (162300±8100 M^−1 s^−1) is seven-times higher than Corn-DFHO (23000±3000 M^−1 s^−1) which could be due to the high folding of Squash. […]
To measure on and off rates of Squash binding to DFHO, the same protocol that was reported previously to measure kinetic rates for Spinach-DFHBI was used (Han et al., “Understanding the Photophysics of the Spinach-DFHBI RNA Aptamer-Fluorogen Complex to Improve Live-Cell RNA Imaging,” J. Am. Chem. Soc. 135:19033-19038 (2013), which is hereby incorporated by reference in its entirety). Briefly, 50 nM RNA was mixed with different amounts of DFHO and binding kinetics was monitored on the fluorimeter as fluorescence signal increases. Each fluorescence signal trace was fitted with a monoexponential curve and the observed rate constant (kobs) was extracted. […]

Data set [2] in a line: Kd measurements for Broccoli and Squash binding to BI. To be noted: 50 nM RNA. As for the experimental part:
as §1
(§2) Dissociation constants (Kd) for the RNA-fluorophore complexes were determined as described previously (Paige et al., “RNA Mimics of Green Fluorescent Protein,” Science 333:642-646 (2011) and Filonov et al., “Broccoli: Rapid Selection of an RNA Mimic of Green Fluorescent Protein by Fluorescence-Based Selection and Directed Evolution,” J. Am. Chem. Soc. 136: 16299-16308 (2014), which are hereby incorporated by reference in their entirety). In brief, the RNA aptamer at a fixed concentration (50 nM) was titrated with increasing fluorophore concentration and the resulting increase in fluorescence was recorded. […]

Data set [3] can be described thus: Dissociation constant of RNA-fluorophore complex, titration with DFHO. The conditions noted are these: 50 nM RNA, one-site saturation model. The class given is binding. From the text: FIG. 2A is a schematic showing the secondary structure of Squash as predicted by mFOLD (Squash: 5′-GGCUACAAGGUGAGCCCAAUAAUACGGUUUGGGUUAGGAUAGGAAGUAGAGCCGUAAACUCUCUAAGCGGUAGUC-3′ (SEQ ID NO:1)). Squash retained the main structural elements of add A-riboswitch aptamer including a 3-way junction and predicted kissing loop interactions (residues at positions 30, 31, 56, and 57, solid gray line). An additional base pair in the kissing loop between loop L2 and L3 (residues at positions 29 and 58, dotted gray line) improved fluorescence activation. […] Shown are the excitation (Ex) and emission (Em) spectra of Squash bound to DFHBI-1T and DFHO (structures shown in inset). Spectra were measured using 20 μM RNA and 2 μM of the indicated fluorogenic dye. […] Fluorescence activation was measured by incubating 200 nM dye and 10 μM RNA. By using a large excess of RNA compared to the fluorophore, it was ensured that the fluorescence observed is from 200 nM RNA-fluorophore complex. Data represent mean values±s.d. for n=3 independent experiments. The values inside the bars indicate fold activation. AU, arbitrary units. […] FIG. 2E is a bar graph showing the results of an experiment in which Squash-DFHO fluorescence was measured in buffers containing exclusively the indicated cations. […]

Data set [4] can be described thus: Dissociation constant of RNA-fluorophore complex, titration with DFHBI-1T. The class given is binding. The conditions noted are these: 50 nM RNA, one-site saturation model. As for the experimental part: as §1, §2

B1: Squash: fluorogenic RNA aptamer evolved from the add A-riboswitch aptamer, binds DFHBI-1T and DFHO; SEQ ID NO: 12 (SEQ ID NO: 1) (nucleic acid)
chain: AGGUGAGCCCAAUAAUACGGUUUGGGUUAGGAUAGGAAGUAGAGCCGUAAACUCUCUAAGCG
modifications: RNA, backbone not given here
Turning to B1, the koff in data set [1] was found to be 0.014 ± 0.008 s⁻¹. Also, the “Affinity for BI” value in data set [2] is given as “much weaker affinity than Broccoli”. The Kd in data set [3] turned out to be 54 nM; in data set [4] it was 45 nM.
